The values that follow come from article PMC4725248, “Yeast mitochondrial HMG proteins”.

Series [1] addresses T1, CpGcf1p (CpGcf1noMP) (Candida parapsilosis CBS604) (UniProt G8BDQ3).
T1 sequence: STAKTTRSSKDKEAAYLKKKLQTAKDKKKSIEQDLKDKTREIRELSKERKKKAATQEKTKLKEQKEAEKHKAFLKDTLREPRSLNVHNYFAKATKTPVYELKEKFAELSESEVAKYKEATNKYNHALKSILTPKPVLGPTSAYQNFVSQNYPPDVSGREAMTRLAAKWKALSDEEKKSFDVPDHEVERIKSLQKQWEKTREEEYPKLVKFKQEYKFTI
Description: EMSA. The following applies: EMSA: 20 mM Tris/HCl pH 7.5, 1 mM EDTA, 50 mM NaCl, 100 ug/ml BSA, 3 nM DNA, 10 min 30 C, gel 0.5x TBE 4 C, EM: 20 mM HEPES pH 7.5, 1 mM EDTA, room ….

Series [2] deals with T2, ScAbf2p (ScAbf2noMP) (Saccharomyces cerevisiae) (UniProt Q02486).
T2 sequence: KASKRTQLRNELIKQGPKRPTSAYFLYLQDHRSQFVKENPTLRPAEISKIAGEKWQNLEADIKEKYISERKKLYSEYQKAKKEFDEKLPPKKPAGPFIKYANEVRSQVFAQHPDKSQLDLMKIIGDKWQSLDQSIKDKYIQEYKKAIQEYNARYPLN
The series is described as follows: EMSA. The following applies: EMSA: 20 mM Tris/HCl pH 7.5, 1 mM EDTA, 50 mM NaCl, 100 ug/ml BSA, 3 nM DNA, 10 min 30 C, gel 0.5x TBE 4 C, EM: 20 mM HEPES pH 7.5, 1 mM EDTA, room ….

Series [3] deals with T3, CpGcf1p (CpGcf1noMP) (Candida parapsilosis CBS604, UniProt G8BDQ3 34-251).
T3 sequence: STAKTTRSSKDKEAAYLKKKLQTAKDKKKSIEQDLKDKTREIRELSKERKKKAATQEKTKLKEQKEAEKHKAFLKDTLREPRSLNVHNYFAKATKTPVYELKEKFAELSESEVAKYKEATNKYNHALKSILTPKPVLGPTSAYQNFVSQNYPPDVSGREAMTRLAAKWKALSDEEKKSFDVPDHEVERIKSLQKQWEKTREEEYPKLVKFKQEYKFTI
The series is described as follows: EMSA. As to conditions: 120 nM protein, EMSA: 20 mM Tris/HCl pH 7.5, 1 mM EDTA, 50 mM NaCl, 100 ug/ml BSA, 3 nM DNA, 10 min 30 C, gel 0.5x TBE 4 C, EM: 20 mM HEPES pH 7.5, 1 mM EDTA, room ….

Series [4] addresses T4, ScAbf2p (ScAbf2noMP) (Saccharomyces cerevisiae, UniProt Q02486 27-183).
T4 sequence: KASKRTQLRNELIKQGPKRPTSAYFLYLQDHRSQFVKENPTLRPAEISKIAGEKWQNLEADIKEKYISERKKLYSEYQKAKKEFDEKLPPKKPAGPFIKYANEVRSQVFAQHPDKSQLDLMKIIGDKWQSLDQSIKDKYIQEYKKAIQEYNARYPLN
The series is described as follows: EMSA. The following applies: 50% shift, 3 nM probe, EMSA: 20 mM Tris/HCl pH 7.5, 1 mM EDTA, 50 mM NaCl, 100 ug/ml BSA, 3 nM DNA, 10 min 30 C, gel 0.5x TBE 4 C, EM: 20 mM HEPES pH 7.5, 1 mM EDTA, room ….

Series [5] concerns YlMhb1p (YlMhb1noMP) (Yarrowia lipolytica). The series is described as follows: EMSA. As to conditions: 50% shift, 3 nM probe, EMSA: 20 mM Tris/HCl pH 7.5, 1 mM EDTA, 50 mM NaCl, 100 ug/ml BSA, 3 nM DNA, 10 min 30 C, gel 0.5x TBE 4 C, EM: 20 mM HEPES pH 7.5, 1 mM EDTA, room ….
Series [6] deals with T4, ScAbf2p (ScAbf2noMP). The series is described as follows: EMSA; EMSA: 20 mM Tris/HCl pH 7.5, 1 mM EDTA, 50 mM NaCl, 100 ug/ml BSA, 3 nM DNA, 10 min 30 C, gel 0.5x TBE 4 C; EM: 20 mM HEPES pH 7.5, 1 mM EDTA, 50 mM NaCl, room. As to conditions: protein: recombinant; tags: GST removed with PreScission protease (pGEX-6P-2); label: 32P, 5' end of S6; blunt.
Series [7] addresses T3, CpGcf1p (CpGcf1noMP). The description is as above. The following applies: protein: recombinant, tags: GST removed with PreScission protease (pGEX-6P-2), label: 32P, blunt.
Series [8] addresses T4, ScAbf2p (ScAbf2noMP). The series is described as follows: EMSA; almost quantitative shift; EMSA: 20 mM Tris/HCl pH 7.5, 1 mM EDTA, 50 mM NaCl, 100 ug/ml BSA, 3 nM DNA, 10 min 30 C, gel 0.5x TBE 4 C; EM: 20 mM HEPES pH 7.5, 1 mM EDTA, 50 mM NaCl, room. The following applies: protein: recombinant; tags: GST removed with PreScission protease (pGEX-6P-2); label: 32P, 5' end of S8; blunt.

With “ACACCATTAATTAAAGCTGCGAATACGATAGCAATACCAATACCTGCTCC (double strand) [50 bp atp9 dsDNA]”, the binding result in series [1] and in series [2] was “binds” each time. The molecule Holliday junction (HJ) had a binding signal (fold higher than 3' Flap) with CpGcf1p (CpGcf1noMP) [3] of 8.

With fluorescent dsDNA, the figures for the K half (in the series with ScAbf2p (ScAbf2noMP) [4]; in series [5]) were 30 nM and 120 nM, respectively.

B1: 15 bp atp9 dsDNA (dsDNA)
DNA 1: GGAGCAGGTATTGGT
DNA 2: ACCAATACCTGCTCC
With B1, the binding result in the series with ScAbf2p (ScAbf2noMP) [6] and with CpGcf1p (CpGcf1noMP) [7] (5' end of S6) was “no binding” each time.

B2: 25 bp atp9 dsDNA (dsDNA)
DNA 1: GGAGCAGGTATTGGTATTGCTATCG
DNA 2: CGATAGCAATACCAATACCTGCTCC
For B2, the values for the binding result with CpGcf1p (CpGcf1noMP) [7] (5' end of S8) and in the series with ScAbf2p (ScAbf2noMP) [8] were “no binding” and “binds”, respectively.
